The values below come from patent publication US20140093892A1 (KOREA RESEARCH INSTITUTE OF BIOSCIENCE AND BIOTECHNOLOGY, published 2014).

In the assay the target is T1, CK8 recombinant protein (human cytokeratin 8, tag sequence included) (human, UniProt P05787 1-483).
T1 construct: Expressed in E. coli BL21(DE3) as inclusion bodies, dissolved in 8 M urea/PBS; also called KRT8 Keratin, type II cytoskeletal 8
T1 sequence (looked up): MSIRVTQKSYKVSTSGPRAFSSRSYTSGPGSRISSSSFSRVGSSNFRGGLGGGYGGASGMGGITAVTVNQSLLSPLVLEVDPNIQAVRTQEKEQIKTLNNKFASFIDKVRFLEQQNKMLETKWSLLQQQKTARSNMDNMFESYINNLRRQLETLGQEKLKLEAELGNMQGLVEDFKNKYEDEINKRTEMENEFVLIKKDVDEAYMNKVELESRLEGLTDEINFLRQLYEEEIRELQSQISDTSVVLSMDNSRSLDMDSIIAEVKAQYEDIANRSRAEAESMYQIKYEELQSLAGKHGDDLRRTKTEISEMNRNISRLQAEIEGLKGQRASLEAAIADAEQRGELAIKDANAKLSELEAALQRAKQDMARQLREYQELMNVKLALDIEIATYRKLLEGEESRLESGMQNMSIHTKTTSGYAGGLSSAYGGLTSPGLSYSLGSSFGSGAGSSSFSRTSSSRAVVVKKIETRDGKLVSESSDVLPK
In words: overlay of recombinant protein solution (50 µg/ml) on blotted partner protein, read out by TAB-K94 reactivity.

B1: CK18 recombinant protein (human cytokeratin 18, tag sequence included) (other, UniProt P05783 1-430, looked up, not shown: small tags and cut ends)
chain: MSFTTRSTFSTNYRSLGSVQAPSYGARPVSSAASVYAGAGGSGSRISVSRSTSFRGGMGSGGLATGIAGGLAGMGGIQNEKETMQSLNDRLASYLDRVRSLETENRRLESKIREHLEKKGPQVRDWSHYFKIIEDLRAQIFANTVDNARIVLQIDNARLAADDFRVKYETELAMRQSVENDIHGLRKVIDDTNITRLQLETEIEALKEELLFMKKNHEEEVKGLQAQIASSGLTVEVDAPKSQDLAKIMADIRAQYDELARKNREELDKYWSQQIEESTTVVTTQSAEVGAAETTLTELRRTVQSLEIDLDSMRNLKASLENSLREVEARYALQMEQLNGILLHLESELAQTRAEGQRQAQEYEALLNIKVKLEAEIATYRRLLEDGEDFNLGDALDSSNSMQTIQKTTTRRIVDGKVVSETNDTKVLRH
notes: Expressed in E. coli BL21(DE3) as inclusion bodies, dissolved in 8 M urea/PBS; also called KRT18 Keratin, type I cytoskeletal 18
In the case of B1, the binding result is given as “binds”.
